Reference: patent US20110081661A1, “Modified photoproteins with increased affinity for calcium and enhanced bioluminescence and uses thereof” (Millipore Corporation, priority 2009, published 2011)

T1: GIP Receptor (Homo sapiens, UniProt P48546)
T1 construct: host or cells: HEK293T
T1 sequence (P48546 22-466): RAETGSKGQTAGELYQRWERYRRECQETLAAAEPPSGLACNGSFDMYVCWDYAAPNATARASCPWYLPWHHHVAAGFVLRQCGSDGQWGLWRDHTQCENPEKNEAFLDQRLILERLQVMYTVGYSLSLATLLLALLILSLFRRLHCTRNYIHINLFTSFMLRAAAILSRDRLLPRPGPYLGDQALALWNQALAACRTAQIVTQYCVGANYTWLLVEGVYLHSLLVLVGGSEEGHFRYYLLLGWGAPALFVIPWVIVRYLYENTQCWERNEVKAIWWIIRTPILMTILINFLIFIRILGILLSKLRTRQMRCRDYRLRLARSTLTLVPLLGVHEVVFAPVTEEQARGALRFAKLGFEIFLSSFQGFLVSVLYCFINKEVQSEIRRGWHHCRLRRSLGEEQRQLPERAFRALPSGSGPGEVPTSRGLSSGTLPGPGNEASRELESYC


Tests used:
GIP Receptor = molecular target: T1, GIP Receptor; test: GIP receptor-mediated bioluminescence in HEK293T cells with chimeric promiscuous G protein (FIG. 5, Table II); type: cell-based; settings: for Max signal with GIP (RLU × 10^−5) / EC50: HEK293T cells, GIP Receptor + promiscuous G protein; for EC50: luminescence vs GIP concentration; for % GPCR/total: signal induced by maximal GIP (1 μM) as percentage of signal induced by Triton X-100 with 1 mM Ca^2+; for Signal: background with GIP: signal induced by maximal GIP (1 μM) divided by signal induced by buffer alone
Experimental: However, coexpression of GIP receptor with a chimeric G protein containing sequences from Gαs and Gαq enable the GIP receptor to stimulate calcium flux.
The results of the dose response curve to varying concentrations of GIP with a subset of the photoproteins are summarized in FIG. 5.
(§1) Signal to background ratio was calculated as the signal induced by maximal GIP (1 μM) divided by the signal induced by buffer alone. The EC50 value for calcium was determined as described above for FIG. 2 for mitochondrially targeted photoproteins transfected into HEK293T cells in the absence of a cotransfected GPCR or G protein. Affinity for calcium was correlated with the properties of the amino acid side chain at residue 168 of Clytin.
The EC50 value for receptor-mediated calcium flux induced by the ligand was determined by plotting luminescence (Y-axis) versus ligand concentration applied to the cells (X-axis), and applying a sigmoidal dose-response curve-fitting algorithm (GraphPad Prism). GPCR-mediated signals of the various modified forms of Clytin having an amino acid substitution at position 168 were also related to the nature of the side chain. In addition, the subcellular location of the photoproteins (cytosolic vs mitochondrial) appeared to have an effect on GPCR-mediated signals. […] All of the other mitochondrially targeted mutants except for Clytin K168R and wild-type Clytin yielded results that were in the range of those observed for wt-Aequorin.

[1] = Calcium EC50 of mitochondrially targeted photoproteins in HEK293T cells without cotransfected GPCR or G protein (Table II); type: cell-based; settings: no cotransfected GPCR or G protein
Text: In an exemplary experiment, HEK293T cells (ATCC-CRL-11268) were transiently co-transfected with 2 μgs of each of pcDNA3.1-H1 (containing the cDNA encoding the H1 histamine receptor) and pcDNA3.1 containing the cDNAs encoding wild type mitochondrial Clytin (referred to as mt-Clytin), modified mitochondrial Clytin having a lysine to aspartic acid mutation at position 168 (referred to as mt-Clytin K168D), modified mitochondrial Clytin having a lysine to glutamic acid mutation at position 168 (referred to as mt-Clytin K168E), wild-type mitochondrial Obelin (referred to as mt-Obelin) or wild type mitochondrial Aequorin (referred to as mt-Aequorin) using the Targefect-293 reagent (TARGETING SYSTEMS). 48 hours later, the cells were detached using Accutase (MILLIPORE), centrifuged, and resuspended in […] in FreeStyle293 media (INVITROGEN), for incubation for 3-4 hours at room temperature in the dark. After incubation, the cells were centrifuged and resuspended in HBSS/HEPES buffer without Ca^2+ at a density of 1×10^6 cells/ml. Next, 100 μl/well of cell suspension for each transfection were added by the use of a Victor2 luminometer plate reader (WALLAC, […]), to a 96-well plate containing 50 μL/well Triton X-100 in MOPS/KCl buffer containing 10 mM EGTA and a series of Ca^2+ concentrations, such that free calcium concentrations ranged from 17 nM to 39.6 μM, followed by for measurement of total bioluminescence at 20 seconds.
as §1

| Molecule | Max signal with GIP (RLU × 10^−5) (GIP Receptor) | EC50 (GIP Receptor) | % GPCR/total (GIP Receptor) | Signal: background with GIP (GIP Receptor) | EC50 [1] | Calcium EC50 (nM) [1] |
| --- | --- | --- | --- | --- | --- | --- |
| Mt-clytin K168S: Mitochondrial K168S modified Clytin, SEQ ID NO:22 (protein) MSVLTPLLLRGLTGSARRLPVPRAKIHSLPPEGKLRPNFDNPKWVNRHKFMFNFLDINGDGKITLDEIVSKASDDICAKLGATPEQTKRHQDAVEAFFKKIGMDYGKEVEFPAFVDGWKELANYDLKLWSQNKKSLIRDWGEAVFDIFDKDGSGSISLDEWKAYGRISGICSSDEDAEKTFKHCDLDNSGSLDVDEMTRQHLGFWYTLDPNADGLYGNFVP | 3.84 RLU × 10^−5 | 15.4 nM | 20.3% | 124.1 | 228 nM | – |
| Mt-clytin K168G: Mitochondrial K168G modified Clytin, SEQ ID NO:16 (protein) MSVLTPLLLRGLTGSARRLPVPRAKIHSLPPEGKLRPNFDNPKWVNRHKFMFNFLDINGDGKITLDEIVSKASDDICAKLGATPEQTKRHQDAVEAFFKKIGMDYGKEVEFPAFVDGWKELANYDLKLWSQNKKSLIRDWGEAVFDIFDKDGSGSISLDEWKAYGRISGICSSDEDAEKTFKHCDLDNSGGLDVDEMTRQHLGFWYTLDPNADGLYGNFVP | 5.09 RLU × 10^−5 | 15.1 nM | 19.3% | 146.8 | 232 nM | – |
| Mt-clytin K168Q: Mitochondrial K168Q modified Clytin, SEQ ID NO:20 (protein) MSVLTPLLLRGLTGSARRLPVPRAKIHSLPPEGKLRPNFDNPKWVNRHKFMFNFLDINGDGKITLDEIVSKASDDICAKLGATPEQTKRHQDAVEAFFKKIGMDYGKEVEFPAFVDGWKELANYDLKLWSQNKKSLIRDWGEAVFDIFDKDGSGSISLDEWKAYGRISGICSSDEDAEKTFKHCDLDNSGQLDVDEMTRQHLGFWYTLDPNADGLYGNFVP | 4.78 RLU × 10^−5 | 17.4 nM | 14.2% | 125.8 | 335 nM | – |
| K168T (protein) MADTASKYAVKLRPNFDNPKWVNRHKFMFNFLDINGDGKITLDEIVSKASDDICAKLGATPEQTKRHQDAVEAFFKKIGMDYGKEVEFPAFVDGWKELANYDLKLWSQNKKSLIRDWGEAVFDIFDKDGSGSISLDEWKAYGRISGICSSDEDAEKTFKHCDLDNSGTLDVDEMTRQHLGFWYTLDPNADGLYGNFVP | – | – | – | – | 174 nM | – |
| K168S (protein) MADTASKYAVKLRPNFDNPKWVNRHKFMFNFLDINGDGKITLDEIVSKASDDICAKLGATPEQTKRHQDAVEAFFKKIGMDYGKEVEFPAFVDGWKELANYDLKLWSQNKKSLIRDWGEAVFDIFDKDGSGSISLDEWKAYGRISGICSSDEDAEKTFKHCDLDNSGSLDVDEMTRQHLGFWYTLDPNADGLYGNFVP | – | – | – | – | – | calcium affinities comparable to wild-type Aequorin, however, better than wt-Clytin |
| wild-type Clytin (protein, listed as Clytia gregaria) MADTASKYAVKLRPNFDNPKWVNRHKFMFNFLDINGDGKITLDEIVSKASDDICAKLGATPEQTKRHQDAVEAFFKKIGMDYGKEVEFPAFVDGWKELANYDLKLWSQNKKSLIRDWGEAVFDIFDKDGSGSISLDEWKAYGRISGICSSDEDAEKTFKHCDLDNSGKLDVDEMTRQHLGFWYTLDPNADGLYGNFVP | – | – | – | – | 545 nM | – |
| K168G (protein) MADTASKYAVKLRPNFDNPKWVNRHKFMFNFLDINGDGKITLDEIVSKASDDICAKLGATPEQTKRHQDAVEAFFKKIGMDYGKEVEFPAFVDGWKELANYDLKLWSQNKKSLIRDWGEAVFDIFDKDGSGSISLDEWKAYGRISGICSSDEDAEKTFKHCDLDNSGGLDVDEMTRQHLGFWYTLDPNADGLYGNFVP | – | – | – | – | – | calcium affinities comparable to wild-type Aequorin, however, better than wt-Clytin |
| Cyto-obelin: Wild-type Obelin (wt-Obelin) amino acid sequence, SEQ ID NO:4; cytosolic (protein, listed as Obelia longissima) MSSKYAVKLKTDFDNPRWIKRHKHMFDFLDINGNGKITLDEIVSKASDDICAKLEATPEQTKRHQVCVEAFFRGCGMEYGKEIAFPQFLDGWKQLATSELKKWARNEPTLIREWGDAVFDIFDKDGSGTITLDEWKAYGKISGISPSQEDCEATFRHCDLDNSGDLDVDEMTRQHLGFWYTLDPEADGLYGNGVP | 1.80 RLU × 10^−5 | 9.86 nM | 56.7% | 47 | – | – |

More lines, main results first:

| Max signal with GIP (RLU × 10^−5) (GIP Receptor) | EC50 (GIP Receptor) | % GPCR/total (GIP Receptor) | Signal: background with GIP (GIP Receptor) | EC50 [1] | Molecule | Calcium EC50 (nM) [1] |
| --- | --- | --- | --- | --- | --- | --- |
| 4.26 RLU × 10^−5 | 13.4 nM | 22% | 113.4 | 174 nM | Mt-clytin K168T: Mitochondrial K168T modified Clytin, SEQ ID NO:24 (protein) MSVLTPLLLRGLTGSARRLPVPRAKIHSLPPEGKLRPNFDNPKWVNRHKFMFNFLDINGDGKITLDEIVSKASDDICAKLGATPEQTKRHQDAVEAFFKKIGMDYGKEVEFPAFVDGWKELANYDLKLWSQNKKSLIRDWGEAVFDIFDKDGSGSISLDEWKAYGRISGICSSDEDAEKTFKHCDLDNSGTLDVDEMTRQHLGFWYTLDPNADGLYGNFVP | – |
| 3.82 RLU × 10^−5 | 21 nM | 10.7% | 115.9 | 358 nM | Mt-clytin K168N: Mitochondrial K168N modified Clytin, SEQ ID NO:18 (protein) MSVLTPLLLRGLTGSARRLPVPRAKIHSLPPEGKLRPNFDNPKWVNRHKFMFNFLDINGDGKITLDEIVSKASDDICAKLGATPEQTKRHQDAVEAFFKKIGMDYGKEVEFPAFVDGWKELANYDLKLWSQNKKSLIRDWGEAVFDIFDKDGSGSISLDEWKAYGRISGICSSDEDAEKTFKHCDLDNSGNLDVDEMTRQHLGFWYTLDPNADGLYGNFVP | – |
| – | – | – | – | 176 nM | K168E (protein) MADTASKYAVKLRPNFDNPKWVNRHKFMFNFLDINGDGKITLDEIVSKASDDICAKLGATPEQTKRHQDAVEAFFKKIGMDYGKEVEFPAFVDGWKELANYDLKLWSQNKKSLIRDWGEAVFDIFDKDGSGSISLDEWKAYGRISGICSSDEDAEKTFKHCDLDNSGELDVDEMTRQHLGFWYTLDPNADGLYGNFVP | – |
| 6.47 RLU × 10^−5 | 7.9 nM | 26.2% | 66.4 | – | Cyto-clytin K168E: K168E modified Clytin amino acid sequence, SEQ ID NO:11; cytosolic (protein) MADTASKYAVKLRPNFDNPKWVNRHKFMFNFLDINGDGKITLDEIVSKASDDICAKLGATPEQTKRHQDAVEAFFKKIGMDYGKEVEFPAFVDGWKELANYDLKLWSQNKKSLIRDWGEAVFDIFDKDGSGSISLDEWKAYGRISGICSSDEDAEKTFKHCDLDNSGELDVDEMTRQHLGFWYTLDPNADGLYGNFVP | – |
